# Laboratory results: patent publication US12365738B2, “Method of treating an interleukin-11-associated or -mediated fibrotic disease or condition by administering an anti-interleukin-11 receptor subunit alpha (IL-11RA) antibody” (Lassen Therapeutics, Inc., priority 2021, dated 2025)
# T1: hIL-11Rα (Homo sapiens, UniProt Q14626)
# T1 sequence (Q14626 23-422): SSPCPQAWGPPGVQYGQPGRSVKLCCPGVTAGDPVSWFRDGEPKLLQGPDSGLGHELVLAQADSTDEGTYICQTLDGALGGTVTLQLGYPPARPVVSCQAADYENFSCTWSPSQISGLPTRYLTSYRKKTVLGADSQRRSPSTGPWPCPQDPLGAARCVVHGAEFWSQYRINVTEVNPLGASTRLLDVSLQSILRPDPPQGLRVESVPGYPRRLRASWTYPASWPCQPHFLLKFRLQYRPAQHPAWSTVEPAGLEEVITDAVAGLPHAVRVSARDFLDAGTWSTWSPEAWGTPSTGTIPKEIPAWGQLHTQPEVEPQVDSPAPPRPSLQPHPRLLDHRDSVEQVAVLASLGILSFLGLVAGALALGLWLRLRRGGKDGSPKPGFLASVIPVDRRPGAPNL
# T2: hIL-11R (Homo sapiens, UniProt Q14626)
# T2 sequence (Q14626 23-422): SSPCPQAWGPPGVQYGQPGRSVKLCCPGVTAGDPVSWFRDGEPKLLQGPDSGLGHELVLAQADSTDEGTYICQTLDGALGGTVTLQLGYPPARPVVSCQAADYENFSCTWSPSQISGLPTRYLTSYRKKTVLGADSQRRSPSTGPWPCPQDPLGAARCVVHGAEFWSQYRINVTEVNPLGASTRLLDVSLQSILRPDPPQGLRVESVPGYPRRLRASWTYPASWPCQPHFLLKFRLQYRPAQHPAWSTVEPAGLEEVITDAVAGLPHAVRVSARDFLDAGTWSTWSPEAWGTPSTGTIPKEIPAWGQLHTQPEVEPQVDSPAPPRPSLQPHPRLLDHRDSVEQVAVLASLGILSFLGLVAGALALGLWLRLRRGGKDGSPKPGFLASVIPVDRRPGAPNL
# Assays:
# [1] = system: type VI collagen formation (PRO-C6) in fibrotic human PCLS; test: Fibrotic human precision-cut lung slice (PCLS) model, PRO-C6 ECM remodeling biomarker; assay type: cell-based; details: for median levels of PRO-C6 compared to the no treatment (media) control: pooled data, all donors and regions, mAb5 0.3, 3.0, 30 μg/mL, nintedanib 1 μM, isotype control 30 μg/mL
# Procedure: Tissue slices were prepared from the subpleural and central region of the fibrotic lung from two human end-stage donors with pulmonary fibrosis (IPF and secondary fibrosis) (see, for example, Hess et al., Toxicol In Vitro. 32:347-61, 2016). For both donors, lung tissue samples from two different regional areas (subpleural and central) were used to generate tissue cores used for PCLS. Adjacent cores were used to achieve serial PCLS for the analysis of one treatment as compared to medium treated PCLS from the same cores. This enables the comparison of densely packed fibrotic areas with fibrotic foci with less affected areas. To ensure the fibrotic status, clinical/demographic information for each patient is provided.
# Each treatment was tested with three replicates for each lung region and for each donor.
# Preparation and incubation of precision-cut lung slices. Lung lobes were canuled and filled with 37° C. warm 2% low-melting agarose/medium solution. Filled lobes were cooled on ice to polymerise agarose. Tissue cores with a diameter of 8 mm were prepared and cut into approximately 300 μm thick slices using a microtome (Krumdieck tissue slicer, Alabama Research and Development, Muniford, AL, USA or Vibratome OTS-5000, Science Services GmbH, Munich) in Earle's Balanced Salts Solution (EBSS). Tissue slices were incubated in Dulbecco's modified Eagle's medium/nutrient mixture F-12 Ham (DMEM) with L-glutamine and 15 mM HEPES without phenol red. Tissue slices were transferred into petri dishes and washed with DMEM for 2 hours. Medium was changed four times every 30 minutes in order to remove cell debris.
# Two PCLS per well were left over night in 500 μL DMEM in 24-well plates for a final washing step. Next day, PCLS were treated with experimental treatments or controls (see Table E5) in 250 μl DMEM/F-12 culture medium for 48 hours under normal cell culture conditions (37° C., 5% CO2). Medium contained 100 units/mL penicillin and 100 μg/mL streptomycin and was not supplemented with fetal calf serum. […]
# Extracellular matrix remodeling evaluation. Biomarkers that reflect ECM remodeling were assessed in supernatant by Nordic Bioscience using the following competitive ELISA: PRO-C6 (C-terminal of type VI collagen C5 domain released as type VI collagen is incorporated into the matrix; measured on mesoscale platform [hsPRO-C6]): Reflects type VI collagen formation. […]
# Statistics. […] Pooled data are presented as percentage of the “no treatment” control, calculated for individual regions and donors. Statistical significant differences were evaluated on pooled data by Kruskal-Wallis with Dunn's multiple comparisons test, comparing to the “no treatment” control. […]
# hIL-11Rα = molecular target: T1, hIL-11Rα; test: Kinetic binding analysis by biolayer interferometry (protein G biosensors, Octet RED96e)
# Procedure: Association was carried out in the presence of a 2-fold dilution series of hIL-11Rα and was allowed to proceed for 120 seconds; dissociation was measured for 300 to 1200 seconds.
# [2] = system: IL-11 signaling (STAT3 Reporter (Luciferase)-HEK293 cell line); test: Cell-based STAT3 reporter (luciferase) HEK293 assay for inhibiting IL-11 signaling; design: species or system human
# Procedure: Further testing of the lead mAbs was carried out using a cell-based reporter assay. IL-11 is reported to signal through the STAT3 and ERK pathways. Therefore, a STAT3 reporter cell line in which firefly luciferase gene expression is driven by STAT3 response elements located upstream of a minimal TATA promoter was selected to analyze mAb functional activity. In these cells, IL-11 can activate the endogenous STAT3 allowing it to bind to the STAT3 response elements, inducing transcription of the luciferase reporter gene and resulting in readily detectable luciferase expression. Antibodies to IL-11R which block IL-11 signaling should inhibit expression of IL-11 driven luciferase in these cells.
# The STAT3 Reporter (Luciferase)—HEK293 cell line (BPS Bioscience, catalog #79800-P) was grown, passaged, and assayed as per manufacturer's protocols. Cells were added at 25,000 cells per well in a 96-well microtiter dish and incubated at 37° C. for 30-45 min. in 5% CO2 humidified air. Anti-IL-11R mAbs were added as a 3-fold dilution series in duplicate columns or rows, and plates were returned to the incubator for an additional 1 h at 37° C. after which 40 ng/mL IL-11 was added to each well to initiate the signal transduction cascade and luciferase production. Plates were incubated for 18-24 hours at 37° C. and luciferase was detected using a One-Step Luciferase Assay System (BPS Bioscience, cat. no. 60690-1) as per manufacturer's instructions.
# hIL-11R = molecular target: T2, hIL-11R; test: Alternate biolayer interferometry assay (AHC biosensors) ranking mAbs 16-32 against mAb5; assay type: binding; details: AHC biosensors
# Source text: A further series of antibodies were designed in which the residue at Kabat position 31 of the heavy chain was varied (mAbs 16-32). In this case an alternate biolayer interferometry assay was used to initially rank the antibodies compared to mAb5, the closest relative in sequence to mAbs 16-32. MAbs were loaded onto anti-human constant domain (AHC) biosensors (FortéBio) in 10×kinetics buffer consisting of PBS, 0.1% BSA, 0.02% polysorbate 20 (TWEEN™) for 120 s to achieve a spectral shift value of 0.8 to 1.2 nm. Association was carried out in the presence of 2-fold dilution series of hIL-11R and was allowed to proceed for 120 s. Dilution series started 10 nM. The dissociation in 10×kinetics buffer for 1200 s. Binding kinetic measurements were taken on an Octet RED96e instrument.
Molecule,ka (hIL-11Rα) [M⁻¹ s⁻¹],kd (hIL-11Rα) [s⁻¹],ka (hIL-11R) [M⁻¹ s⁻¹],kd (hIL-11R) [s⁻¹],median levels of PRO-C6 compared to the no treatment (media) control ([1]; 48 hours),potency at inhibiting IL-11 signaling relative to TS7 / 8E2 (in words) [2],"dose relation of PRO-C6 reduction ([1]; 0.3, 3.0, 30 μg/mL, 48 hours)",effects on ECM remodeling relative to nintedanib ([1]; in several cases)
"COC(=O)c1ccc2c(c1)NC(=O)/C2=C(\Nc1ccc(N(C)C(=O)CN2CCN(C)CC2)cc1)c1ccccc1 [nintedanib, Nintedanib, reference compound]",,,,,decreased,,,
"mAb5: anti-IL-11Rα antibody, human IgG4 (S228P), kappa; VH SEQ ID NO: 201, VL SEQ ID NO: 202 (antibody, V domains shown, IgG4 S228P kappa constant regions; mAb5 VH Chain; mAb5 VL Chain) VH: EVQLLESGGGLVQPGGSLRLSCAASGFTFSWYSMTWVRQAPGKGLEWVSSIVPYGDLTQYADSVKGRFTISRDNSKNTLYLQMNSLRAEDTAVYYCAKGPGWGSFDLWGRGTLVTVSS VL: DIQMTQSPSSLSASVGDRVTITCQASQDINNYLNWYQQKPGKAPKLLIYDASNLQTGVPSRFSGSGSGTDFTFTISSLQPEDIATYYCQQHESQSPTFGPGTKVDIK",63700,<1e-07,490000,2.5e-05,decreased,more potent at inhibiting IL-11 signaling than either of TS7 or 8E2,reduced PRO-C6 in a dose-dependent manner,better effects on ECM remodeling

# More lines, main results first:
ka (hIL-11Rα) [M⁻¹ s⁻¹],kd (hIL-11Rα) [s⁻¹],ka (hIL-11R) [M⁻¹ s⁻¹],kd (hIL-11R) [s⁻¹],Molecule,median levels of PRO-C6 compared to the no treatment (media) control ([1]; 48 hours),potency at inhibiting IL-11 signaling relative to TS7 / 8E2 (in words) [2],"dose relation of PRO-C6 reduction ([1]; 0.3, 3.0, 30 μg/mL, 48 hours)",effects on ECM remodeling relative to nintedanib ([1]; in several cases)
32900,0.0181,,,"mAb11: anti-IL-11Rα antibody, human IgG4 (S228P), kappa; VH SEQ ID NO: 213, VL SEQ ID NO: 214 (antibody, V domains shown, IgG4 S228P kappa constant regions; mAb11 VH Chain; mAb11 VL Chain) VH: EVQLLESGGGLVQPGGSLRLSCAASGFTFSWYSMTWVRQAPGKGLEWVSSIVDYGDLTQYADSVKGRFTISRDNSKNTLYLQMNSLRAEDTAVYYCAKGPGWGSFDLWGRGTLVTVSS VL: DIQMTQSPSSLSASVGDRVTITCQASQDINNYLNWYQQKPGKAPKLLIYDASNLQTGVPSRFSGSGSGTDFTFTISSLQPEDIATYYCQQHESQSPTFGPGTKVDIK",,less potent than TS7,,
58100,<1e-07,,,"mAb12: anti-IL-11Rα antibody, human IgG4 (S228P), kappa; VH SEQ ID NO: 215, VL SEQ ID NO: 216 (antibody, V domains shown, IgG4 S228P kappa constant regions; mAb12 VH Chain; mAb12 VL Chain) VH: EVQLLESGGGLVQPGGSLRLSCAASGFTFSWYSMTWVRQAPGKGLEWVSSIVPYGDLTQYADSVKGRFTISRDNSKNTLYLQMNSLRAEDTAVYYCAKGPGWYSFDLWGRGTLVTVSS VL: DIQMTQSPSSLSASVGDRVTITCQASQDINNYLNWYQQKPGKAPKLLIYDASNLQTGVPSRFSGSGSGTDFTFTISSLQPEDIATYYCQQHESQSPTFGPGTKVDIK",,comparable in potency to TS7,,
